What was measured:
Assay in all cases: cell-based or functional assay
[1] = target: human RXFP2 (human, UniProt Q8WXD0 1-754)
[2] = target: T1, mouse RXFP1 (mouse, UniProt Q6R6I7 1-758)
T1 sequence (looked up): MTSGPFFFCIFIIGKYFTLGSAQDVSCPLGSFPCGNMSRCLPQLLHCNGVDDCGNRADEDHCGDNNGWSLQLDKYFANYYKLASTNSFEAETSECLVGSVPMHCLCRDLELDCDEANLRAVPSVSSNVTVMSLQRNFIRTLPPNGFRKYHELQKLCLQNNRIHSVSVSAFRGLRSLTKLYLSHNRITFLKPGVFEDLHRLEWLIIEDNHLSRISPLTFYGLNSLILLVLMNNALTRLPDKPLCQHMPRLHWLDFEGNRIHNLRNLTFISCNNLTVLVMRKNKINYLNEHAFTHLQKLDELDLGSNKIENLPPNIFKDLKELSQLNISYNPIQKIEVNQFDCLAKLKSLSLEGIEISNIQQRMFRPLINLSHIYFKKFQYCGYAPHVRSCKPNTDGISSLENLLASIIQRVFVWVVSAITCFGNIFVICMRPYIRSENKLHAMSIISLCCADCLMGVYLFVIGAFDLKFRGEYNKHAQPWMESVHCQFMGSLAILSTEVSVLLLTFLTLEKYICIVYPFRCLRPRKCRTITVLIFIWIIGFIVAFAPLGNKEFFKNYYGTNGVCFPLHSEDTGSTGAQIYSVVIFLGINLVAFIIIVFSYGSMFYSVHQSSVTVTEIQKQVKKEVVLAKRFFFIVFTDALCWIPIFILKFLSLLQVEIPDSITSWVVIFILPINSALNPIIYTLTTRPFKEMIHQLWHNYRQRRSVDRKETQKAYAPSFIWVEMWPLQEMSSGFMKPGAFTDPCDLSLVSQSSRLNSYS

[3] = target: T2, human RXFP1 (human, UniProt Q9HBX9 1-757)
T2 sequence (looked up): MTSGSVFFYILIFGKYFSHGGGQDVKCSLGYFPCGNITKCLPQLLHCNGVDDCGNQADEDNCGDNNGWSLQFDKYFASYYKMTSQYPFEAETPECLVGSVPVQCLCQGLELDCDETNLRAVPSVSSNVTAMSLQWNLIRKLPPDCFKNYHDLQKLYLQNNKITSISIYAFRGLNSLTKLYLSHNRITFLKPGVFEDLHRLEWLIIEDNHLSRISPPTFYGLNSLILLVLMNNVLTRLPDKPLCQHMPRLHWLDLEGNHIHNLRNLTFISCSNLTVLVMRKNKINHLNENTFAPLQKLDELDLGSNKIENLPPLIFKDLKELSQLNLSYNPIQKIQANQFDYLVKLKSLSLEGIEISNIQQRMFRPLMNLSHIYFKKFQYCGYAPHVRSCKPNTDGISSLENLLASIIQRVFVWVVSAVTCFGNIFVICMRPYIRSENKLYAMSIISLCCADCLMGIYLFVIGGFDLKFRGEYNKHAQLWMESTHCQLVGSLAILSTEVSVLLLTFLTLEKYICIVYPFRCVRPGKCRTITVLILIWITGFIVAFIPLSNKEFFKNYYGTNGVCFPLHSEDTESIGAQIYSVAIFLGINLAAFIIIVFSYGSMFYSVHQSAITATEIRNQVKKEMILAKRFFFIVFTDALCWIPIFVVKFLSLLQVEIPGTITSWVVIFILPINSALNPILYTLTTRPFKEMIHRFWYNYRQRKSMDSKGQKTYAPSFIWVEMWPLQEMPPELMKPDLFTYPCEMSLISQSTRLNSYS

human RXFP2, sequence (Q8WXD0 whole entry): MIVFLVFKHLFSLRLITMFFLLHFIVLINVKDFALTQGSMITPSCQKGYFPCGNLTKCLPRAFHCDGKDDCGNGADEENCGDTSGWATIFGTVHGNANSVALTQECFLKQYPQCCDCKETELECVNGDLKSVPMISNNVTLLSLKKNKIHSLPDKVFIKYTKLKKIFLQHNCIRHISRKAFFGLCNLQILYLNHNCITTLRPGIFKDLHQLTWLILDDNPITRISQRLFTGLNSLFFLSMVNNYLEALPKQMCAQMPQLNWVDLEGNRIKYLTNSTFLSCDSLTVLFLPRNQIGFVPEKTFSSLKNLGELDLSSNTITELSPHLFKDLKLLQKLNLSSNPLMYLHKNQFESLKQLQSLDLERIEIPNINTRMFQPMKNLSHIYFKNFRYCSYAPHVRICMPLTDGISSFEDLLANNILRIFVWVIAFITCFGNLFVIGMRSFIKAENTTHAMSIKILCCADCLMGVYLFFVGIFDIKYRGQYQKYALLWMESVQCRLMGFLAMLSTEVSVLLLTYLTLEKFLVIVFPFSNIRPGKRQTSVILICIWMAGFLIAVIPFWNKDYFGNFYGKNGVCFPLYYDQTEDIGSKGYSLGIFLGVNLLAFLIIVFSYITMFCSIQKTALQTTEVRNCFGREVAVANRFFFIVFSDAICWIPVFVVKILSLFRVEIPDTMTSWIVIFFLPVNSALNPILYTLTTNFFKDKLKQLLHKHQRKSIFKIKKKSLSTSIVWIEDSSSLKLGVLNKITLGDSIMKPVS

Binder	EC50 hRXFP2 (M), cAMP HTRF assay [1] [M]	EC50 mRXFP1 (M), cAMP HTRF assay [2] [M]	EC50 hRXFP1 (M), cAMP HTRF assay [3] [M]
RELAX0085 (Fc fusion) chain 1: DKTHTCPPCPAPEFEGGPSVFLFPPKPKDTLMISRTPEVTCVVVDVSHEDPEVKFNWYVDGVEVHNAKTKPREEQYNSTYRVVSVLTVLHQDWLNGKEYKCKVSNKALPASIEKTISKAKGQPREPQVYTLPPCREEMTKNQVSLWCLVKGFYPSDIAVEWESNGQPENNYKTTPPVLDSDGSFFLYSKLTVDKSRWQQGNVFSCSVMHEALHNHYTQKSLSLSPGGGGGSGGGGSGGGGSGGGGGSQLYSALANKCCHVGCTKRSLARFC chain 2: DKTHTCPPCPAPEFEGGPSVFLFPPKPKDTLMISRTPEVTCVVVDVSHEDPEVKFNWYVDGVEVHNAKTKPREEQYNSTYRVVSVLTVLHQDWLNGKEYKCKVSNKALPASIEKTISKAKGQPREPQVCTLPPSREEMTKNQVSLSCAVKGFYPSDIAVEWESNGQPENNYKTTPPVLDSDGSFFLVSKLTVDKSRWQQGNVFSCSVMHEALHNHYTQKSLSLSPGAPAPAPAPAPAPAPAPAPAGSSWMEEVIKLCGRELVRAQIAICGMSTWS	4.67e-08	3.09e-11	6.37e-11
RELAX0106 (Fc fusion) chain 1: DKTHTCPPCPAPEFEGGPSVFLFPPKPKDTLMISRTPEVTCVVVDVSHEDPEVKFNWYVDGVEVHNAKTKPREEQYNSTYRVVSVLTVLHQDWLNGKEYKCKVSNKALPASIEKTISKAKGQPREPQVYTLPPCREEMTKNQVSLWCLVKGFYPSDIAVEWESNGQPENNYKTTPPVLDSDGSFFLYSKLTVDKSRWQQGNVFSCSVMHEALHNHYTQKSLSLSPGGGGGSGGGGGSQLYSALANKCCHVGCTKRSLARFC chain 2: DKTHTCPPCPAPEFEGGPSVFLFPPKPKDTLMISRTPEVTCVVVDVSHEDPEVKFNWYVDGVEVHNAKTKPREEQYNSTYRVVSVLTVLHQDWLNGKEYKCKVSNKALPASIEKTISKAKGQPREPQVCTLPPSREEMTKNQVSLSCAVKGFYPSDIAVEWESNGQPENNYKTTPPVLDSDGSFFLVSKLTVDKSRWQQGNVFSCSVMHEALHNHYTQKSLSLSPGAPAPAPAPAPAPAPAPAPAGSSWMEEVIKLCGRELVRAQIAICGMSTWS	4.94e-08	1.98e-11	6.96e-11
RELAX0087 (Fc fusion) chain 1: DKTHTCPPCPAPEFEGGPSVFLFPPKPKDTLMISRTPEVTCVVVDVSHEDPEVKFNWYVDGVEVHNAKTKPREEQYNSTYRVVSVLTVLHQDWLNGKEYKCKVSNKALPASIEKTISKAKGQPREPQVYTLPPCREEMTKNQVSLWCLVKGFYPSDIAVEWESNGQPENNYKTTPPVLDSDGSFFLYSKLTVDKSRWQQGNVFSCSVMHEALHNHYTQKSLSLSPGGGGGSGGGGSGGGGSGGGGGSQLYSALANKCCHVGCTKRSLARFC chain 2: DKTHTCPPCPAPEFEGGPSVFLFPPKPKDTLMISRTPEVTCVVVDVSHEDPEVKFNWYVDGVEVHNAKTKPREEQYNSTYRVVSVLTVLHQDWLNGKEYKCKVSNKALPASIEKTISKAKGQPREPQVCTLPPSREEMTKNQVSLSCAVKGFYPSDIAVEWESNGQPENNYKTTPPVLDSDGSFFLVSKLTVDKSRWQQGNVFSCSVMHEALHNHYTQKSLSLSPGGGGGSGGGGSGGGGGSSWMEEVIKLCGRELVRAQIAICGMSTWS	3.63e-08	3.48e-11	4.89e-11
RELAX0107 (Fc fusion) chain 1: DKTHTCPPCPAPEFEGGPSVFLFPPKPKDTLMISRTPEVTCVVVDVSHEDPEVKFNWYVDGVEVHNAKTKPREEQYNSTYRVVSVLTVLHQDWLNGKEYKCKVSNKALPASIEKTISKAKGQPREPQVYTLPPCREEMTKNQVSLWCLVKGFYPSDIAVEWESNGQPENNYKTTPPVLDSDGSFFLYSKLTVDKSRWQQGNVFSCSVMHEALHNHYTQKSLSLSPGGGGGGSQLYSALANKCCHVGCTKRSLARFC chain 2: DKTHTCPPCPAPEFEGGPSVFLFPPKPKDTLMISRTPEVTCVVVDVSHEDPEVKFNWYVDGVEVHNAKTKPREEQYNSTYRVVSVLTVLHQDWLNGKEYKCKVSNKALPASIEKTISKAKGQPREPQVCTLPPSREEMTKNQVSLSCAVKGFYPSDIAVEWESNGQPENNYKTTPPVLDSDGSFFLVSKLTVDKSRWQQGNVFSCSVMHEALHNHYTQKSLSLSPGAPAPAPAPAPAPAPAPAPAGSSWMEEVIKLCGRELVRAQIAICGMSTWS	1.22e-07	3.87e-11	8.09e-11
RELAX0105 (Fc fusion) chain 1: DKTHTCPPCPAPEFEGGPSVFLFPPKPKDTLMISRTPEVTCVVVDVSHEDPEVKFNWYVDGVEVHNAKTKPREEQYNSTYRVVSVLTVLHQDWLNGKEYKCKVSNKALPASIEKTISKAKGQPREPQVYTLPPCREEMTKNQVSLWCLVKGFYPSDIAVEWESNGQPENNYKTTPPVLDSDGSFFLYSKLTVDKSRWQQGNVFSCSVMHEALHNHYTQKSLSLSPGGGGGSGGGGSGGGGGSQLYSALANKCCHVGCTKRSLARFC chain 2: DKTHTCPPCPAPEFEGGPSVFLFPPKPKDTLMISRTPEVTCVVVDVSHEDPEVKFNWYVDGVEVHNAKTKPREEQYNSTYRVVSVLTVLHQDWLNGKEYKCKVSNKALPASIEKTISKAKGQPREPQVCTLPPSREEMTKNQVSLSCAVKGFYPSDIAVEWESNGQPENNYKTTPPVLDSDGSFFLVSKLTVDKSRWQQGNVFSCSVMHEALHNHYTQKSLSLSPGAPAPAPAPAPAPAPAPAPAGSSWMEEVIKLCGRELVRAQIAICGMSTWS	3.33e-08	1.49e-11	7.12e-11
RELAX0084 (Fc fusion) chain 1: DKTHTCPPCPAPEFEGGPSVFLFPPKPKDTLMISRTPEVTCVVVDVSHEDPEVKFNWYVDGVEVHNAKTKPREEQYNSTYRVVSVLTVLHQDWLNGKEYKCKVSNKALPASIEKTISKAKGQPREPQVYTLPPCREEMTKNQVSLWCLVKGFYPSDIAVEWESNGQPENNYKTTPPVLDSDGSFFLYSKLTVDKSRWQQGNVFSCSVMHEALHNHYTQKSLSLSPGAPAPAPAPAPAPAPAPAPAGSQLYSALANKCCHVGCTKRSLARFC chain 2: DKTHTCPPCPAPEFEGGPSVFLFPPKPKDTLMISRTPEVTCVVVDVSHEDPEVKFNWYVDGVEVHNAKTKPREEQYNSTYRVVSVLTVLHQDWLNGKEYKCKVSNKALPASIEKTISKAKGQPREPQVCTLPPSREEMTKNQVSLSCAVKGFYPSDIAVEWESNGQPENNYKTTPPVLDSDGSFFLVSKLTVDKSRWQQGNVFSCSVMHEALHNHYTQKSLSLSPGGGGGSGGGGSGGGGSGGGGGSSWMEEVIKLCGRELVRAQIAICGMSTWS	1.2e-08	3.48e-11	5.34e-11
RELAX0086 (Fc fusion) chain 1: DKTHTCPPCPAPEFEGGPSVFLFPPKPKDTLMISRTPEVTCVVVDVSHEDPEVKFNWYVDGVEVHNAKTKPREEQYNSTYRVVSVLTVLHQDWLNGKEYKCKVSNKALPASIEKTISKAKGQPREPQVYTLPPCREEMTKNQVSLWCLVKGFYPSDIAVEWESNGQPENNYKTTPPVLDSDGSFFLYSKLTVDKSRWQQGNVFSCSVMHEALHNHYTQKSLSLSPGGGGGSGGGGSGGGGGSQLYSALANKCCHVGCTKRSLARFC chain 2: DKTHTCPPCPAPEFEGGPSVFLFPPKPKDTLMISRTPEVTCVVVDVSHEDPEVKFNWYVDGVEVHNAKTKPREEQYNSTYRVVSVLTVLHQDWLNGKEYKCKVSNKALPASIEKTISKAKGQPREPQVCTLPPSREEMTKNQVSLSCAVKGFYPSDIAVEWESNGQPENNYKTTPPVLDSDGSFFLVSKLTVDKSRWQQGNVFSCSVMHEALHNHYTQKSLSLSPGGGGGSGGGGSGGGGSGGGGGSSWMEEVIKLCGRELVRAQIAICGMSTWS	4.88e-08	2.68e-11	4.49e-11
